Laboratory results from PMC8584621.

How the values were obtained:
[1] = test system: SCO3932 (GntR-like, HutC subfamily) (Streptomyces coelicolor A3(2) M145); assay: DNase I footprinting; details: protein concentration giving protection, EMSA: 10 mM Tris-HCl pH 7.5, 50 mM KCl, 1 mM DTT, herring sperm DNA 100 ng, DTT/Tween20, 0.03 pmol probe in 16 uL, 20 min room temperature, footprint: same …
[2] = test system: SCO3932 (GntR-like, HutC subfamily) (Streptomyces coelicolor A3(2) M145); assay: EMSA; details: EMSA: 10 mM Tris-HCl pH 7.5, 50 mM KCl, 1 mM DTT, herring sperm DNA 100 ng, DTT/Tween20, 0.03 pmol probe in 16 uL, 20 min room temperature; footprint: same …
[3] = target: T1, SCO3932 (GntR-like, HutC subfamily) (Streptomyces coelicolor A3(2) M145) (UniProt Q9X9T6); assay: DMS footprinting; details: EMSA: 10 mM Tris-HCl pH 7.5, 50 mM KCl, 1 mM DTT, herring sperm DNA 100 ng, DTT/Tween20, 0.03 pmol probe in 16 uL, 20 min room temperature; footprint: same …
T1 sequence: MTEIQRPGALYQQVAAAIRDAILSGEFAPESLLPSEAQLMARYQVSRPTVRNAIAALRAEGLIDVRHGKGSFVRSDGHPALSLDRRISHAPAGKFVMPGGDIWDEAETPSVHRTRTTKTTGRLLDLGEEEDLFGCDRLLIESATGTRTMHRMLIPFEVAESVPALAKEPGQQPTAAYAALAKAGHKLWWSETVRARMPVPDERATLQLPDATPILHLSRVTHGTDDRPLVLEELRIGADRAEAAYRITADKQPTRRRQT

[4] = target: T1, SCO3932 (GntR-like, HutC subfamily) (Streptomyces coelicolor A3(2) M145); assay: DNase I footprinting; details: EMSA: 10 mM Tris-HCl pH 7.5, 50 mM KCl, 1 mM DTT, herring sperm DNA 100 ng, DTT/Tween20, 0.03 pmol probe in 16 uL, 20 min room temperature; footprint: same …

p3932/3933 footprint probe
binding ([1]; sites K1, K2): 100 nM

p3932/3933 EMSA probe
binding [2]: 1.9 nM

pactII-orf4 footprint probe
binding ([1]; sites A1, A2): 800 nM

pcpkA/D EMSA probe
binding [2]: 9.4 nM

pactII-orf4 EMSA probe
binding [2]: 9.4 nM

AAGGATCCGAATGGACTGCATTTCTGTGGCCTCCCTGGCCAATCCAGGACGTCCAACCTATTCGGACGTCACTTGTCCTTACGAGTGACAAGCTTGGAGCACTGTACGGCGAGAGCGCAACTACTTATGCTGACGAGTGATGTCGCGCGTGCGACGTGCCTACGACACCAGACCGGAGATGCCGAGATGACGGAGATCCAGAATTCTT (double strand) [p3932/3933 footprint probe]
binding [3]: binds
binding [4]: 100 nM

pcpkD footprint probe
binding ([1]; site D): 800 nM
